Patent publication US20170121381A1 (RAMOT AT TEL AVIV UNIVERSITY, published 2017)

Molecular target: T1, purified active human caspase-6 (human, UniProt P55212 24-179; P55212 194-293, limits assumed)
T1 sequence (looked up) 1: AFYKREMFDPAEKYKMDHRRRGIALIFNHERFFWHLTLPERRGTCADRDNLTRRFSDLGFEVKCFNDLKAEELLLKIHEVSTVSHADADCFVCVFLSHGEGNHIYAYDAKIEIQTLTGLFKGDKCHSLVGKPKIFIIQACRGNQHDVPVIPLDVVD
T1 sequence (looked up) 2: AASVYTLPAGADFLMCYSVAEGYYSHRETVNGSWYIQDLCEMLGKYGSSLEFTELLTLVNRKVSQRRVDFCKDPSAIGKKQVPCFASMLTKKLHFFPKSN
Assay: cell-based or functional assay

Question: GRKKRRQRRRPPQSSEIVLDGTDN [ED11] was tested. Which “Km of Michaelis-Menten curve, Caspase-Glo 6 assay with Z-VEID-aminoluciferin, 10 uM ED11” value did it give?
Answer: The value was 3.3 fold.
